Test results taken from patent publication US20250346644A1 (LATTICON SUZHOU BIOPHARMACEUTICALS, published 2025).
Residue numbers refer to the chain shown, from its start. In names and notes the source's numbering stands. Read-outs that look alike come from different tables or passages of the source. Values belong to the binder of their own block, whether it stands above or below them.

Tests used:
hIL2Rβ (hCD122) [1] = target: T1, hIL2Rβ (hCD122) (human, UniProt P14784 27-239, limits assumed); test: ELISA (method of section 2.1.1): sample captured on coated goat anti-human IgG, hCD122 titrated; the x axis is the CD122 concentration
T1 construct: bought recombinant protein; also called hCD122 (Acro)
T1 sequence (looked up): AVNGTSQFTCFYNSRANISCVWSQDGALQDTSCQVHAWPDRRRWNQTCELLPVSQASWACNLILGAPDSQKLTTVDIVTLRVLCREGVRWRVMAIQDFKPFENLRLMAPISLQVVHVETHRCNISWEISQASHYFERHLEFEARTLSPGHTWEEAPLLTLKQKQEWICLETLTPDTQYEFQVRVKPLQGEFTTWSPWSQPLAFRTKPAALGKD
Procedure: (§1) ELISA was performed as follows: a goat anti-human IgG (Jackson Immunoresearch) was diluted to 1 μg/mL in 1×PBS and added to an ELISA plate at 100 μL/well, and then incubated at 4° C. overnight. The plate was washed with PBS and then blocked at room temperature for 1 hour after adding the blocking solution (PBST containing 1% BSA) to each well. […] The plate was washed with PBST; the HRP-labeled anti-6×His-tag secondary antibody (Proteintech) diluted at a ratio of 1:10,000 in blocking solution was then added to each well and incubated at room temperature for 1 hour. The plate was washed with PBST; the TMB chromogenic solution (Thermo) was added to each well and incubated in dark for 3-10 minutes at room temperature. The stop solution (2 M HCl) was added to each well, and OD values at a wavelength of 450-570 nm were read using a multimode microplate reader (Varioskan, Thermo).

[2] = target: T2, high-affinity IL2R expressed on the surface of CTLL-2 cells; test: cell-based or functional assay
T2 sequence (P01590 whole entry, species assumed, looked up): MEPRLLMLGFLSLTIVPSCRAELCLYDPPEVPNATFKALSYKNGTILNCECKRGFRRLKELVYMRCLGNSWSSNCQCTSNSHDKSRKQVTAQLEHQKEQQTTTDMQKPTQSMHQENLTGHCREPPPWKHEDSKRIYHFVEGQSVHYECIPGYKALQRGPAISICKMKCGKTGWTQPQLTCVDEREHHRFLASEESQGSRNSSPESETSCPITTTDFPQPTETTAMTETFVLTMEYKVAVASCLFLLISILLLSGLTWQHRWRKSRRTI
T2 sequence (P16297 whole entry, species assumed, looked up): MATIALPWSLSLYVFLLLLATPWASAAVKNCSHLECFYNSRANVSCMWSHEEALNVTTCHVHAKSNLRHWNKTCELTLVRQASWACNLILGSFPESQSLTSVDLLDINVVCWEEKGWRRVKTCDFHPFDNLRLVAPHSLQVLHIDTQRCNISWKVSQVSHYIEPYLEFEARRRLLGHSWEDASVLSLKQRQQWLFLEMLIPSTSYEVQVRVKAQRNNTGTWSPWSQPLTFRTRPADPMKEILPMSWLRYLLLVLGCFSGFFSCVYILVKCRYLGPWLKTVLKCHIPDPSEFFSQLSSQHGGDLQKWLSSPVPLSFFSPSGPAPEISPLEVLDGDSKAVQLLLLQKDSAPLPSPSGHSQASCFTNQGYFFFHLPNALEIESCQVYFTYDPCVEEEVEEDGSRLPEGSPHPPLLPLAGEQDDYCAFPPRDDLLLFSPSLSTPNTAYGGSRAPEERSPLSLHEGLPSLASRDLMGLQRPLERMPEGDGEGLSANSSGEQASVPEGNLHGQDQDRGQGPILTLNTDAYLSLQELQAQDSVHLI
T2 sequence (P34902 whole entry, species assumed, looked up): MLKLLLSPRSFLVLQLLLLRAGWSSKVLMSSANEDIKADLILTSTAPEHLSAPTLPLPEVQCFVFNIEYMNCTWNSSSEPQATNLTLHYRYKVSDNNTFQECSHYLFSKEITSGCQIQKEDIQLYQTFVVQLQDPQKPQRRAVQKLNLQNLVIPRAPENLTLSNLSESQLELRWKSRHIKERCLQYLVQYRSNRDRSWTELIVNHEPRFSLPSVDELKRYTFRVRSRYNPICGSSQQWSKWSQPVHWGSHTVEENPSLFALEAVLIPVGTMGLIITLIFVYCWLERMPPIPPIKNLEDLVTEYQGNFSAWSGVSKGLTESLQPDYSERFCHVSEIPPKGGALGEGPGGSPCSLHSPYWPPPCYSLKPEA

[3] = target: T2, high-affinity IL2R expressed on the …; test: cell-based or functional assay; remark: listed apart in the source
mIL2-his [4] = target: T3, mIL2-his (mouse, UniProt P04351 21-169); test: ELISA, antibody captured by anti-human IgG, mIL2-his titrated
T3 construct: also called wild-type mouse IL-2 (with a his-tag); not shown: his-tag
T3 sequence (looked up): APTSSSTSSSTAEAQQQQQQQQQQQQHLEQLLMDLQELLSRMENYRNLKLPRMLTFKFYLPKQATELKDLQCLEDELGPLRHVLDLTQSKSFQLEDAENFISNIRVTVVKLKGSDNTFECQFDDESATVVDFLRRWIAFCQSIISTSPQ

mIL2-his [5] = target: T3, mIL2-his; test: BLI ForteBio, Ab on Protein A sensor
Procedure: (§2) After each cycle of association and dissociation steps, the sensor was regenerated by 10 mM glycine buffer (pH 1.5) and then stated with the next cycle of detection. After the detection, the association rate constant and dissociation rate constant between the antibody and antigen were fitted and extrapolated using the analytical software, and the value of affinity constant (KD) was calculated.

hIL2Rβ (hCD122) [6] = target: T1, hIL2Rβ (hCD122); test: ELISA (method of section 2.1.1): sample captured on coated goat anti-human IgG, hCD122 titrated; the x axis is the CD122 concentration; remark: listed apart in the source
Procedure: as §1

mIL2-his [7] = target: T3, mIL2-his; test: BLI ForteBio, Ab on Protein A sensor; remark: listed apart in the source
Procedure: as §2

hIL2-TM-his [8] = target: T4, hIL2-TM-his (human, UniProt P60568 21-153); test: BLI ForteBio, Ab on Protein A sensor
T4 construct: also called hIL-2 mutein containing three point mutations K64G, N90R and M104E (with a his-tag); not shown: his-tag
T4 chain: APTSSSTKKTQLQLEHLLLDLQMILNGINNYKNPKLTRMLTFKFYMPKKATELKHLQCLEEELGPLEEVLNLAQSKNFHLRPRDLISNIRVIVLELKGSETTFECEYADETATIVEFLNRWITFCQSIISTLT

hIL2Rα (hCD25) = target: T5, hIL2Rα (hCD25) (human, UniProt P01589 22-213, limits assumed); test: ELISA (method of section 4.2.1): sample captured on coated goat anti-human IgG, hCD25 titrated; the x axis is the CD25 concentration
T5 construct: bought recombinant protein; also called hCD25 (Acro); biotin-CD25 (Acro)
T5 sequence (looked up): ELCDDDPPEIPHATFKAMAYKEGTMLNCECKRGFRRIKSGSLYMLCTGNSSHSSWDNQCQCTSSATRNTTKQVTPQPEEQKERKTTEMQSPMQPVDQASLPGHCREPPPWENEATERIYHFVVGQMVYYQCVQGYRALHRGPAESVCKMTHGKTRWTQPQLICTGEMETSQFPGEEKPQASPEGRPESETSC

mIL2-his [9] = target: T3, mIL2-his; test: BLI ForteBio, Ab on Protein A sensor; remark: listed apart in the source
Procedure: as §2

hIL2-TM-his [10] = target: T4, hIL2-TM-his; test: BLI ForteBio, Ab on Protein A sensor
Procedure: as §2

hIL2-DM-his = target: T6, hIL2-DM-his (human, UniProt P60568 21-153); test: BLI ForteBio, Ab on Protein A sensor
T6 construct: expressed in ExpiCHO-S cells, nickel-column purified; also called hIL-2 mutein containing two point mutations K64G and N90R (with a his-tag); not shown: his-tag

Kd (mIL2-his [7]): 0.254 nM | koff (mIL2-his [7]): 0.000236 s⁻¹ | kon (mIL2-his [7]): 928000 M⁻¹ s⁻¹ | Kd (hIL2-TM-his [8]): 9.88 nM | koff (hIL2-TM-his [8]): 0.0027 s⁻¹ | kon (hIL2-TM-his [8]): 274000 M⁻¹ s⁻¹
B6: hS4B6-H6K3(H) (antibody, V domains shown)
VH: QVQLVQSGAEVKKPGATVKISCKVSGDTITAYYMHWVRQAPGQGLEWIGRIDPEDDSTKYAENFKGRVTITADTSTDTAYMELSSLRSEDTAVYYCTTVTFYYSRELRWFAYWGQGTLVTVSS
VL: DIVLTQSPATLSLSPGERATLSCQASQDIGNYLSWYQQKPGQAPRLLIYSATSLASGIPARFSGSRSGTDFTLTISSLEPEDFAVYYCLQHYSTPYTFGQGTKLEIK
notes: H6K3 with L34M, N65G, N76D (heavy) and D56S, Y71F (light)

binding result (hIL2Rα (hCD25)): no binding (tested: 10 µg/mL)
B8: H6K3(H)-Cy10 (other)
heavy: SSSTKKTQLQLEHLLLDLQMILNGINNYKNPKLTRMLTCKFYMPKKATELKHLQCLEEELGPLEEVLNLAQSKNFHLRPRDLISNIRVIVLELKGSETTFMCEYADETATIVEFLNRWITFLQSIISTLTGGGGSGGGGSGGGGSGGGGSQVQLVQSGAEVKKPGATVKISCKVSGDTITAYYMHWVRQAPGQGLEWIGRIDPEDDSTKYAENFKGRVTITADTSTDTAYMELSSLRSEDTAVYYCTTVTCYYSRELRWFAYWGQGTLVTVSS
VL: B6 VL
notes: fusion with the parental antibody hS4B6-H6K3(H), disulfide IL:42-H:97; also called H6K3-Cy10

EC50 (mIL2-his [4]): 0.0357 µg/mL | Kd (mIL2-his [5]): 1.4 nM | koff (mIL2-his [5]): 0.00121 s⁻¹ | kon (mIL2-his [5]): 864000 M⁻¹ s⁻¹
B10: hS4B6-H6K7 (antibody, V domains shown)
VH: B6 VH with M34L, G66N, D77N
VL: DIQMTQSPSSLSASVGDRVTITCQASQDIGNYLSWYQQKPGKAPKLLIHSATSLADGVPSRFSGSGSGTDFTLTISSLQPEDFATYYCLQHYSTPYTFGGGTKVEIK
notes: full antibody

The next lines start with the binder.

B1: IC-Cy08 (other)
heavy: APTSSSTKKTQLQLEHLLLDLQMILNGINNYKNPKLTRMLTFKFYMPKKATELKHLQCLEEELGCLEEVLNLAQSKNFHLRPRDLISNIRVIVLELKGSETTFMCEYADETATIVEFLNRWITFCQSIISTLTGGGGSGGGGSGGGGSGGGGSQVQLVQSGAEVKKPGATVKISCKVSGDTITAYYMHWVRQAPGQGLEWIGRIDPEDDSTKYAENFKGRVTITADTSTDTAYMELSSLRSEDTAVYYCTTVTCYYSRELRWFAYWGQGTLVTVSS
VL: B6 VL
notes: hIL-2/anti-IL-2 antibody fusion protein, disulfide IL:65-H:97; also called H6K3(H)-Cy08; H6K3(H)-Cy-08
binding result (hIL2Rβ (hCD122) [1]): binds | STAT5 phosphorylation in CTLL-2 cells by flow cytometry, EC50 [2]: 0.234 nM | Activity in Promoting CTLL-2 Cell Proliferation (EC50, nM) [3]: 0.425 nM

B2: hS4B6-H1K1 (antibody, V domains shown)
VH: QVQLQESGPGLVKPSETLSLTCTVSGDTITAYYLHWIRQPPGKGLEWIGRIDPEDDSTKYAENFKNRVTISVDTSKNQFSLKLSSVTAADTAVYYCTTVTFYYSRELRWFAYWGQGTTVTVSS
VL: B6 VL with A9G, S56D, A60D, F71Y, S77R, L104V
notes: full antibody
EC50 (mIL2-his [4]): 0.0357 µg/mL | Kd (mIL2-his [5]): 25.9 nM | koff (mIL2-his [5]): 0.000719 s⁻¹ | kon (mIL2-his [5]): 27700 M⁻¹ s⁻¹

B3: K2G11-Cy04 (other)
heavy: B8 heavy with C39F, M101C, E204D, V249I, C251F, Y252L
VL: B6 VL with D28Y, G30S, T52C
Activity in Promoting CTLL-2 Cell Proliferation (EC50, nM) [3]: 9.17 nM

B4: hS4B6-H3K3 (antibody, V domains shown)
VH: QVTLKESGPVLVKPTQTLTLTCTVSGDTITAYYLHWIRQPPGKALEWIGRIDPEDDSTKYAENFKNRLTFSADTSKNQVVLTMTNMDPVDTATYYCARVTFYYSRELRWFAYWGQGTLVTVSS
VL: B6 VL with S56D, F71Y
notes: full antibody
EC50 (mIL2-his [4]): 0.185 µg/mL | Kd (mIL2-his [5]): 13.2 nM | koff (mIL2-his [5]): 0.00265 s⁻¹ | kon (mIL2-his [5]): 200000 M⁻¹ s⁻¹

B5: IC-Cy08-QR (other)
heavy: B1 heavy
VL: B6 VL with Q27R
notes: IC-Cy08 with light chain Q27R; also called H6K3(H)-Cy-08-QR
binding result (hIL2Rβ (hCD122) [6]): binds

B7: IC-Cy08-QS (other)
heavy: B1 heavy
VL: B6 VL with Q27S
notes: IC-Cy08 with light chain Q27S; also called H6K3(H)-Cy-08-QS
binding result (hIL2Rβ (hCD122) [6]): binds

B9: S4B6 chimeric antibody (antibody, human IgG1, V domains shown)
VH: EVQLQESGAELVRPGTSVKLSCKVSGDTITAYYLHFVRQRPGQGLEWIGRIDPEDDSTKYAENFKNKATFTADASSNTAYLRLSSLTSEDTATYFCTTVTFYYSRELRWFAYWGQGTLVTVSS
VL: DIQVTQSPASLSASLEEIVTITCQASQDIGNYLSWYQQKLGKSPQLLIHSATSLADGVPSRFSGSRSGTQYSLKINRLQVEDTGIYYCLQHYSTPYTFGAGTKLELK
notes: also called chS4B6
EC50 (mIL2-his [4]): 0.0139 µg/mL | Kd (mIL2-his [5]): 0.996 nM | koff (mIL2-his [5]): 0.000182 s⁻¹ | kon (mIL2-his [5]): 183000 M⁻¹ s⁻¹ | Kd (mIL2-his [9]): 0.996 nM | koff (mIL2-his [9]): 0.000182 s⁻¹ | kon (mIL2-his [9]): 183000 M⁻¹ s⁻¹ | Kd (hIL2-TM-his [10]): 22.6 nM | koff (hIL2-TM-his [10]): 0.00476 s⁻¹ | kon (hIL2-TM-his [10]): 210000 M⁻¹ s⁻¹ | Kd (hIL2-DM-his): 39.4 nM | koff (hIL2-DM-his): 0.0106 s⁻¹ | kon (hIL2-DM-his): 269000 M⁻¹ s⁻¹
